Laboratory results published in paper doi:10.1101/2022.01.16.476467 (bioRxiv, 2022).
Values belong to the binder of their own block, whether it stands above or below them.

What was measured:
[1] = target: T1, CASK_CAMK domain (residues 1-345) (Mus musculus, UniProt O70589-3 1-345); assay: SEC-MALS
T1 sequence (looked up): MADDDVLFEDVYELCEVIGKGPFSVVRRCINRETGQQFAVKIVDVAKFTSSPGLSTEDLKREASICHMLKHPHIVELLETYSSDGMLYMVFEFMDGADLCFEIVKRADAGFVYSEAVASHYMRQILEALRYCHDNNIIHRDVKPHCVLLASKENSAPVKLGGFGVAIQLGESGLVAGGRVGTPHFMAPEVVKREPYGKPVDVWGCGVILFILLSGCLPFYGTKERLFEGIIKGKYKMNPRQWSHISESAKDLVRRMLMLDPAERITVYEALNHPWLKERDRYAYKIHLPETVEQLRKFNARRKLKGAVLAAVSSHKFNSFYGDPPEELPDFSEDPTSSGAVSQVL

[2] = target: T1, CASK_CAMK domain (residues 1-345); assay: ITC
[3] = target: T2, CASK full-length protein (recombinant) (Mus musculus, UniProt O70589-3 1-897); assay: ITC
T2 sequence (looked up): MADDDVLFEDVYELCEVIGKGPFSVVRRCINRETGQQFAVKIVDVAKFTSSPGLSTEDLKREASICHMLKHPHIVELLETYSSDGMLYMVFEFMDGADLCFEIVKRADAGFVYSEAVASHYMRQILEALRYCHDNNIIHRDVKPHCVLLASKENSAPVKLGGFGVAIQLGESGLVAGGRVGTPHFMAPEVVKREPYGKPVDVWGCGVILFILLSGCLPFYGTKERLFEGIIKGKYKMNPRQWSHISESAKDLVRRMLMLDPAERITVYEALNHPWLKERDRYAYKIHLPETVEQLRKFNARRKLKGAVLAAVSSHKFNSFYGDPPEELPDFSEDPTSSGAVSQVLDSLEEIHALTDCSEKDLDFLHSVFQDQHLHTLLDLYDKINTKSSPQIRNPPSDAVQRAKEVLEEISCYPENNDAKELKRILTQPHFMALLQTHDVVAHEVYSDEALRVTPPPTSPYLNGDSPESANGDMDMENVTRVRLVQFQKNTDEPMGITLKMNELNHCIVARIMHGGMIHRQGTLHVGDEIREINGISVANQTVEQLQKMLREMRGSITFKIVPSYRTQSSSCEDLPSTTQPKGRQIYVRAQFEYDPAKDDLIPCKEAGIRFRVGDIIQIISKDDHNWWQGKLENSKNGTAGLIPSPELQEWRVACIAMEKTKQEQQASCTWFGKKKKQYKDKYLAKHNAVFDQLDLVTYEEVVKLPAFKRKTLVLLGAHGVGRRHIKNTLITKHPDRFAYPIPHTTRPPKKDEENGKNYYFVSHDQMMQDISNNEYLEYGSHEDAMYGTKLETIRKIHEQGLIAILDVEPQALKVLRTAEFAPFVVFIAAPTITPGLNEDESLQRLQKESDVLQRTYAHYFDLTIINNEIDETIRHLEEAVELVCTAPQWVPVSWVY

stoichiometry N [1]: ~1
Kd [2]: 940 ± 90 nM
B1: Caskin1 extended CID protein (residues 371-466) (domain or fragment, Mus musculus, UniProt Q6P9K8-1 371-466, looked up)
chain: PPEEIWVLRKPFAGGDRSGSLSNVAGGRSTGGHALHAGSEGVKLLATVLSQKSVSESSPGDSPVKPPEGSSGAARSQPPAAHAGQVYGEQPPKKLE

Kd [3]: ~760 nM
B2: Caskin1_N-terminal (residues 1-674) (domain or fragment)
chain: not shown
